We go through two substances from paper PMC7117682.

Assay [1] has as its target CD47 naturally expressed on CD47(+) Jurkat T lymphoma cells (human (endogenous in Jurkat)) (UniProt Q08722). Description: laser scanning cytometry (LSC) on cells; titration of SIRPα-biotin on live DRAQ5-labelled Jurkat cells, 384-well, homogeneous (no wash), HEPES buffer (10 mM HEPES pH 7.5, 0.15 M NaCl), room temperature, neutravidin-Alexa488 0.5 μg/mL; SIRPα presented as a multimer on tetrameric neutravidin (avidity).

Assay [2] shares this target. Description: laser scanning cytometry (LSC) on cells; competition on live CD47(+) Jurkat cells, 384-well, homogeneous: a fixed concentration of SIRPα-biotin (20 nM) co-incubated with a titration of the competitor or inhibitor, neutravidin-Alexa488.

What is called EC50 is the concentration needed to bring the measured effect to its halfway point. For orientation: IC50 means the concentration needed to halve the response being measured.

Chain of CD47 naturally expressed on CD47(+) Jurkat T lymphoma cells (human (endogenous in Jurkat)) (Q08722 19-323): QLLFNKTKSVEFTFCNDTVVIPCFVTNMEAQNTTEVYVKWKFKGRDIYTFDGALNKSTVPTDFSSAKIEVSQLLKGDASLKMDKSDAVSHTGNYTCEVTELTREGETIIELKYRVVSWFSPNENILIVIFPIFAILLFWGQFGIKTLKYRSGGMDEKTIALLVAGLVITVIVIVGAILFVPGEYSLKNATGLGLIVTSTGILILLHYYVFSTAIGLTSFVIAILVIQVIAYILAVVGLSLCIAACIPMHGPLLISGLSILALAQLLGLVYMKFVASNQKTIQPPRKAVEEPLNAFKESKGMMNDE

With “SIRPα variant 2, biotin-conjugated (SIRPα-Avi-biotin d1 construct) (domain or fragment)”, in assay [1], the EC50 was 16 nM and the fold more potent than SIRPαV1 was 2 fold.

For “SIRPα variant 2, non-biotin conjugated (cold) (domain or fragment)”, the IC50 in assay [2] was 3000 nM.
